The target of this test is 6 × His-tagged recombinant PHB2, Q99623. Nature of the test: SPR.

The values that follow come from PMC3791465.

Broadly, the Kd is the free concentration of one partner at which half of the binding sites on the other are occupied at equilibrium, for simple one-to-one binding.

Chain of 6 × His-tagged recombinant PHB2, Q99623 (Q99623 whole entry): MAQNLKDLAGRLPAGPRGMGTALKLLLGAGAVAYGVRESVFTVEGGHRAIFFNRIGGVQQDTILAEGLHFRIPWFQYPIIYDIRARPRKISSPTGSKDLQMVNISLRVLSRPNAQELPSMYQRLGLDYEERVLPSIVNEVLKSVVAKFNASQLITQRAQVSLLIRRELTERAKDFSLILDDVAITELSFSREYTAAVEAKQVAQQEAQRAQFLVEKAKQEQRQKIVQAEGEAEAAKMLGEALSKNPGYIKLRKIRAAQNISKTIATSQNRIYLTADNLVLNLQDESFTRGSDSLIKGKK

For QMLSDLTLQLRQR (modifications not checked) [ERα activity-regulator synthetic peptide (ERAP)], the dissociation constant Kd was 18.9 µM.
